Measured values: patent US20070154994A1 (NATIONAL RESEARCH COUNCIL OF CANADA, published 2007)
Where no end group is shown, it is not given here.

B2: TβRIIED-E5 fusion protein (receptor)
chain: TIPPEQKLISEEDLLHVQKSVNNDMIVTDNNGAVKFPQLCKFCDVRFSTCDNQKSCMSNCSITSICEKPQEVCVAVWRKNDENITLETVCHDPKLPYHDFILEDAASPKCIMKEKKKPGETFFMCSCSSDECNDNIIFSEEYNTSNPDGGRGGGGSGGGEVSALEKEVSALEKEVSALEKEVSALEKEVSALEKGGHHHHHH
notes: Secreted from HEK 293SF cells; also called TβRII ED-E5 coil; E5 coiled-tagged TβRIIED

Legend:
[1] = target: T1, Recombinant human TGF-β1 (human, UniProt P01137 279-390); test: cell-based or functional assay
T1 sequence (P01137 279-390 limits assumed): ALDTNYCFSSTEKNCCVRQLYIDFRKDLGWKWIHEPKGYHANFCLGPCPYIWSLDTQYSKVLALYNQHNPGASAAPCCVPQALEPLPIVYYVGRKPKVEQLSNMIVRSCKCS

[2] = target: T1, Recombinant human TGF-β1; test: SPR (BIACORE), TGF-β1 coupled, 300 nM TβRIIED-E5 alone; the pair is assigned by the fast wash-off that paragraph 133 gives for sensorgrams 1 and 4
Excerpt: (§1) In another embodiment of the invention, an alternative approach to achieving coiled-coil induced dimerization of TβRIIED is provided. In this embodiment, a dimeric coil is used to act as an adaptor to bridge two proteins.
(§2) Regeneration of the sensor chip was done as described above.

[3] = target: T1, Recombinant human TGF-β1; test: SPR, TGF-β1 coupled, simple model, Kdiss#1
Experimental: (§3) In FIG. 6A, different concentrations of MP-TβRIIIED-K5 monomeric fusion protein ranging from 62.5 nM to 500 nM were injected over 75 RUs of coupled TGF-β1 and over a control surface. The points are the resonance units obtained after data preparation as described in Example 2, and the solid lines represent the fit when integrating all the curves simultaneously using a rearrangement model. FIGS. 6B-6C show residuals from the fit of the interaction data using a rearrangement model (FIG. 6B) and a simple one-to-one model (FIG. 6C).
(§4) Surface plasmon resonance studies were performed using a BIACORE™ biosensor (see for example U.S. Pat. No. 6,165,335 and related patents) using a running buffer composed of HBS; 20 mM Hepes (pH 7.4),150 mM NaCl, 3.4 mM EDTA, and 0.05% Tween20 for diluting all the test analytes.

[4] = target: T2, Recombinant human TβRIIED, untagged (human, UniProt P37173 23-166); test: SPR (BIACORE), untagged hTβRII ED (about 120 RU left) captured on the coupled anti hTGF-βRII antibody, MP-TβRIIIED-K5 injected
T2 construct: extracellular domain; Gift from Dr. Hinck; also called untagged hTβRII ED; untagged TβRIIED
T2 sequence (P37173 23-166): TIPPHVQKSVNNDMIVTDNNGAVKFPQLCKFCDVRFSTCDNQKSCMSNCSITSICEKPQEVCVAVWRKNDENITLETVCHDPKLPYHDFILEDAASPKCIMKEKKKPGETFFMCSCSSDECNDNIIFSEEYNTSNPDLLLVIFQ
Experimental: This study is also described in Example 2.
A solution of 0.1 M ethanolamine-HCl (pH 8.5, 35 μL) was then used to block the remaining activated carboxyl groups.
Three studies were then performed at a flow rate of 5 μL/min: [0183] […] [0184] […] [0185]

[5] = target: T1, Recombinant human TGF-β1; test: SPR, TGF-β1 coupled, simple model, kass#1
Experimental: as §3
(§5) Kinetic experiments were carried out at 25° C. with a flow rate of 100 μL/min. Different concentrations of MP-TβRIIIED-K5 (0 to 500 nM), or MP-TβRIIIED-mixed with equimolar concentrations of […] (0 to 150 nM), were randomly injected in duplicate over a TGF-β1 surface as well as over a control surface (150 μL injections), following which the analyte solution was replaced by buffer for at least 210 seconds. Regeneration of the sensor chip for subsequent injections was accomplished by two pulses of HCl (20 mM, 120 seconds), followed by an EXTRACLEAN procedure performed according to the BIACORE manual.

[6] = target: T1, Recombinant human TGF-β1; test: SPR, TGF-β1 coupled, rearrangement model, Kdiss#1
Experimental: as §3, §5

[7] = target: T1, Recombinant human TGF-β1; test: SPR, TGF-β1 coupled, simple model, Kdapp
Experimental: as §3, §4

[8] = target: T1, Recombinant human TGF-β1; test: SPR, TGF-β1 coupled, rearrangement model, Kd 1 (initial binding step)
Experimental: as §3, §4

[9] = target: T1, Recombinant human TGF-β1; test: SPR, TGF-β1 coupled, rearrangement model, rearrangement step
Experimental: as §3, §4

[10] = target: T1, Recombinant human TGF-β1; test: SPR, TGF-β1 coupled, rearrangement model, Kdapp
Experimental: as §3, §5

[11] = target: T1, Recombinant human TGF-β1; test: SPR, TGF-β1 coupled, rearrangement model, kass#1
Experimental: as §3, §4

[12] = target: T1, Recombinant human TGF-β1; test: SPR, TGF-β1 coupled, simple model, Kd 1; simple model, Kd 1
Experimental: as §3, §4

[13] = target: T1, Recombinant human TGF-β1; test: SPR, TGF-β1 coupled, avidity model, Kdiss#1
Experimental: (§6) Since TGF-β1 is a covalent dimer, and since TβRIIED was artificially dimerized through coiled-coil interactions, two scenarios of binding were evaluated. […] This corresponds to an overall one to one (dimer-to-dimer) stoichiometry model with a rearrangement step after the initial binding (rearrangement model).

[14] = target: T1, Recombinant human TGF-β1; test: SPR, TGF-β1 coupled, avidity model, Kd 1
Experimental: (§7) Regeneration of the sensor chip for subsequent injections was accomplished by two pulses of HCl (20 mM, 120 seconds), followed by an EXTRACLEAN procedure performed according to the BIACORE manual.

[15] = target: T1, Recombinant human TGF-β1; test: SPR, TGF-β1 coupled, rearrangement model, Kd 1 (initial binding step); remark: listed apart in the source
Experimental: as §6

[16] = target: T1, Recombinant human TGF-β1; test: SPR, TGF-β1 coupled, simple one-to-one model (poor fit), kass#1
[17] = target: T1, Recombinant human TGF-β1; test: SPR, TGF-β1 coupled, rearrangement model (best fit), Kdapp
[18] = target: T1, Recombinant human TGF-β1; test: SPR, TGF-β1 coupled, simple one-to-one model (poor fit), Kdapp
Experimental: as §7

[19] = target: T1, Recombinant human TGF-β1; test: SPR, TGF-β1 coupled, simple one-to-one model (poor fit), Kd 1
Experimental: as §7

[20] = target: T1, Recombinant human TGF-β1; test: SPR, TGF-β1 coupled, rearrangement model (best fit), Kdiss#1
[21] = target: T1, Recombinant human TGF-β1; test: SPR, TGF-β1 coupled, simple one-to-one model (poor fit), Kdiss#1
[22] = target: T1, Recombinant human TGF-β1; test: SPR, TGF-β1 coupled, rearrangement model, rearrangement step; remark: listed apart in the source
Experimental: as §6

[23] = target: T1, Recombinant human TGF-β1; test: SPR, TGF-β1 coupled, avidity model, second step; unit from footnote **
Experimental: as §7

[24] = target: T1, Recombinant human TGF-β1; test: SPR, TGF-β1 coupled, avidity model, kass#1
Experimental: as §6

[25] = target: T1, Recombinant human TGF-β1; test: SPR, TGF-β1 coupled, rearrangement model (best fit), kass#1
Experimental: as §6

[26] = target: B2; test: inferred from SPR of TβRIIED-E5 (300 nM) preincubated with K5ox over coupled TGF-β1
Excerpt: as §1, §2

B1: TβRIIED-E5 dimerized by K5ox (two TβRIIED-E5 to one K5ox) (receptor)
chain: TIPPEQKLISEEDLLHVQKSVNNDMIVTDNNGAVKFPQLCKFCDVRFSTCDNQKSCMSNCSITSICEKPQEVCVAVWRKNDENITLETVCHDPKLPYHDFILEDAASPKCIMKEKKKPGETFFMCSCSSDECNDNIIFSEEYNTSNPDGGRGGGGSGGGEVSALEKEVSALEKEVSALEKEVSALEKEVSALEKGGHHHHHH
peptide: CGGKVSALKEKVSALKEKVSALKEKVSALKEKVSALKE
modifications: N-terminal Cys oxidized, joining the two chains as a K5 covalent dimer
[1]
  IC50 for inhibition of signaling (luciferase, MLEC cells): ~30 nM
  IC50 of TβRIIED-E5 in the presence of 150 nM K5ox (luciferase, MLEC cells): 53 nM

## B2
[2]
  binding result: binds

B3: MP-TβRIIIED-K5 fusion protein (receptor)
chain: GPEQKLISEEDLRQLRNPSGFQGQLDGNATFNMELYNTDLFLVPSPGVFSVAENEHVYVEVSVTKADQDLGFAIQTCFLSPYSNPDRMSDYTIIENICPKDDSVKFYSSKRVHFPIPHAEVDKKRFSFLFKSVFNTSLLFLHCELTLCSRKKGSLKLPRCVTPDDACTSLDATMIWTMMQNKKTFTKPLAVVLQVDYKENVPSTKDSSPIPPPPPQIFHGGRGGGGSGGGKVSALKEKVSALKEKVSALKEKVSALKEKVSALKEGGHHHHHH
notes: Secreted from HEK 293SF cells; also called Cterm-TβRIIIED-K5coil; K5 tagged TβRIIIED
[3]
  koff: 0.0025 s⁻¹
[4]
  binding result: no binding (tested: 200 nM)
[5]
  kon: 50000 M⁻¹ s⁻¹
[6]
  koff: 0.044 s⁻¹
[7]
  Kd: 48 nM
[8]
  Kd: 670 nM
[9]
  kd 2 (no unit): 0.15 no unit
[10]
  Kd: 86 nM
[11]
  kon: 64000 M⁻¹ s⁻¹
[12]
  Kd: 49 nM

B4: TβRIIED-K5/TβRIIED-E5 coiled-coil induced dimer (receptor)
chain 1: TIPPEQKLISEEDLLHVQKSVNNDMIVTDNNGAVKFPQLCKFCDVRFSTCDNQKSCMSNCSITSICEKPQEVCVAVWRKNDENITLETVCHDPKLPYHDFILEDAASPKCIMKEKKKPGETFFMCSCSSDECNDNIIFSEEYNTSNPDGGRGGGGSGGGKVSALKEKVSALKEKVSALKEKVSALKEKVSALKEGGHHHHHH
chain 2: TIPPEQKLISEEDLLHVQKSVNNDMIVTDNNGAVKFPQLCKFCDVRFSTCDNQKSCMSNCSITSICEKPQEVCVAVWRKNDENITLETVCHDPKLPYHDFILEDAASPKCIMKEKKKPGETFFMCSCSSDECNDNIIFSEEYNTSNPDGGRGGGGSGGGEVSALEKEVSALEKEVSALEKEVSALEKEVSALEKGGHHHHHH
notes: Non-covalent dimer made by preincubating equimolar TβRIIED-K5 and TβRIIED-E5; also called TβRIIED-E5/TβRIIED-K5 dimer
[13]
  koff: 0.071 s⁻¹
[14]
  Kd: 330 nM
[15]
  Kd: 92 nM
[16]
  kon: 640000 M⁻¹ s⁻¹
[17]
  Kd: 1.5 nM
[18]
  Kd: 0.33 nM
[19]
  Kd: 0.33 nM
[20]
  koff: 0.11 s⁻¹
[21]
  koff: 0.00021 s⁻¹
[22]
  Kd 2 (no unit): 0.0166 no unit
[23]
  Kd 2: 370 nM
[24]
  kon: 213000 M⁻¹ s⁻¹
[25]
  kon: 1.19e+06 M⁻¹ s⁻¹

B5: K5ox (peptide)
peptide: CGGKVSALKEKVSALKEKVSALKEKVSALKEKVSALKE
modifications: also: covalent homodimer via oxidized N-terminal Cys
notes: Synthetic peptide oxidized in ammonium bicarbonate at pH 8.0; also called oxidized CGGK5 coil; K5 covalent dimer
[26]
  binding result: binds
